# Data published in patent CN106699884A (ZONHON BIOPHARMA INST INC; GENSUN INST BIOMEDICINE CO LTD, dated 2017).
# T1: 人C-反应蛋白 (human C-reactive protein, extracted from human plasma, HyTest) (human, UniProt P02741 19-224)
# T1 construct: mature; Native protein from plasma; In the Western blot it was run on both non-denaturing and SDS gels; also called CRP; 天然CRP
# T1 sequence (looked up): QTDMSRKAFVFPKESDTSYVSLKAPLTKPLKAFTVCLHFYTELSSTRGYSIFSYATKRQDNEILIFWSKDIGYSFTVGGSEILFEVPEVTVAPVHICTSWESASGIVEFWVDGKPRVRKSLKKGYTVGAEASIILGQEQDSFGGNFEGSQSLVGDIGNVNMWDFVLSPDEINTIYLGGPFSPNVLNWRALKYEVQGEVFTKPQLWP
# Molecular target: T1, 人C-反应蛋白 (human C-reactive protein, …)
# Assay: Western blot, HRP-labelled scFv on native CRP from non-denaturing and SDS-PAGE gels
binder,measurement,value
"单链抗体P20 (anti-human C-reactive protein scFv P20) (scFv, Recombinant scFv made in E. coli BL21(DE3) and purified on HisTrap HP; It was HRP-labelled (P20-HRP) in the Western blot and was the coating antibody on nitrocellulose in the colloidal gold card; also called P20-scFv-(HIS)6; P20-HRP) scFv: EVMLVESGGGLVKPGGSLKLSCAASGFTFSSYAMSWVRQTPERRLEWVATISTSGSDRYYPDSVKWRFTISRDSAKNILYLQMSSLRSEDTAMYYCARRGWDYWGQGTSVTVSAGGGGSGGGGSGGGGSDVVMTQTPLSLPVSLGDQASISCRSSQSLVHSNGNTYLHWYLQKSGQSPKLLLYKVSNRFSGVSDRFSGSGSGTDFTLKISRVEAEDLGVYFCSQNTHVPPTFGGGTKLEIKR",binding result,binds
